From publication PMC6252174 (Nature structural & molecular biology, 2018) come the findings set out here.

The series deals with the molecule itself. The experiment in a line: cryo-EM structure.

B1: Xenopus tropicalis TRPV4 crystallization and cryo-EM construct TRPV4_(cryst) (133–797 N647Q) (domain or fragment, UniProt A0A6I8RQZ3 133-797, looked up)
chain: APSPDPPPVIKMFNRHMLFDIVSRGSTAELEGFLPFLLAQKKRLTDEEFREASTGKTCLTKALMNLNGGKNDTIPMLIDIAEKTGNLREFINSPFRDVYYRGQTALHIAIERRCKHYVELLVEKGADVHAQARGRFFQPKDEGGYFYFGELPLSLAACTNQPDIVHYLTENAHKKADIRRQDSRGNTVLHALVAIADNTRENTKFVTKVYDLLVIKCVKLYPDSSLEAIFNNDSMSPLMMAAKLGKIGIFQHIIRLEIKDEEARHLSRKFRDWAYGPVYSSLYDLSMLDTCGEEVSVLEILVYNSKVENRHEMLAVEPINELLRDKWQKFGAVSFYISVVSYLIAMIIFTLIAYYRPMDGTPPYPYRTTMDYMRLAGEIVTLLTGVVFFITNIKDLFMKKCPGVNSLFIDGSFQLLYFIYSVLVIITAVLYLVGIESYLAVMVFALVLGWMNALYFTRGLKLTGTYSIMLQKILFKDLFRFLLVYLLFMIGYASALVSLLNPCTSQESCIETSSQCTVPEYPSCRDSSTFSKFLLDLFKLTIGMGDLEMINSAKYPAVFIILLVTYIILTFVLLLNMLIALMGETVGQVSKESKQIWKLQWATTILDIERSFPVCMRKAFRSGEMVTVGKNLDGTPDRRWCFRVDEVNWSHWNQNLGIINEDPGR
One may read the stoichiometry N as a count of units in the complex or per binding partner. In the case of B1, the “stoichiometry N” value was determined as 4.
